These are literature values, as cited in paper PMC3359286.

As usually defined, the Kd is the free concentration of one partner at which half of the binding sites on the other are occupied at equilibrium, for simple one-to-one binding.

The data set deals with hemoglobin (Homo sapiens) (UniProt P69905).
Sequence of hemoglobin (Homo sapiens) (P69905 2-142, chain 1 of 2): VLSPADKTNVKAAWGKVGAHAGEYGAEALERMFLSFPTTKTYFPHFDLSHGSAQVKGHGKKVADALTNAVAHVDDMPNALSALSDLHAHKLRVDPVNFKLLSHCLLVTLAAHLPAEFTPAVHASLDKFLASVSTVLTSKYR
Sequence of hemoglobin (Homo sapiens) (P68871 2-147, chain 2 of 2, further chain): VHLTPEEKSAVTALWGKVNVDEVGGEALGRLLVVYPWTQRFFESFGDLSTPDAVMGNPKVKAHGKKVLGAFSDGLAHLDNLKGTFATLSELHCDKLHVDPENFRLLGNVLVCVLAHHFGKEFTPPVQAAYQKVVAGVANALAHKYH

For the substance IsdB (from UniProt A7X146), the dissociation constant Kd was 55 nM.
